Data as given in publication PMC3173086.
pKd: −log10 of the molar value.

Target: MppA (murein tripeptide-binding protein of E. coli), His tag cleaved (E. coli K-12) (UniProt P77348)
Experiment: other fluorescence titration

Chain of UniProt P77348 (P77348 23-537, tags left off): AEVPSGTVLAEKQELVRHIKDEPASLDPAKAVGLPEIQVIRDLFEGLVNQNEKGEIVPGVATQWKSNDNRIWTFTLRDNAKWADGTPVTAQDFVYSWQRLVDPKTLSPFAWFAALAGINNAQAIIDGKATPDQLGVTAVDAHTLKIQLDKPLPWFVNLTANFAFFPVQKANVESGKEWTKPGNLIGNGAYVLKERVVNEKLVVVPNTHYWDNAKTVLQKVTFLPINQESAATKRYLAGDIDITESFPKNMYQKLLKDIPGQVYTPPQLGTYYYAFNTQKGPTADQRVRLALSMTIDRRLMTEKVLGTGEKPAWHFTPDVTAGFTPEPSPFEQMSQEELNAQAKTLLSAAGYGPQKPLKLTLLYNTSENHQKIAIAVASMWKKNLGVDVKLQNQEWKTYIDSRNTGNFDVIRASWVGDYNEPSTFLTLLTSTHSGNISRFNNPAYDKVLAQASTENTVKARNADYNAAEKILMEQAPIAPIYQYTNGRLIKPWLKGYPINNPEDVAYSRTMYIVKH

Work on L-Ala-γ-D-Glu-L-Lys (peptide) yielded a pKd of 3.89.
